One assay has as its system tyrosinase. Kind of assay: DOPA oxidase enzyme assay on extracts of treated melan-a cells. The class given is cell-based, murine. The conditions noted are these: extracts of melan-a cells cultured 5 days; 10 nM. The procedure:
Assays for melanogenic catalytic activities as described below were carried out at pH 6.8, 37° C. for 60 minutes. (1) Tyrosine hydroxylase activity was measured using the [^3H]tyrosine assay (Hearing and Ekel, 1976; Hearing, 1987). This method specifically measures the tritiated water produced during the hydroxylation of tyrosine to DOPA. (2) DOPA oxidase activity was measured using incorporation of [3-^14C]DOPA into acid-insoluble melanin as detailed previously (Aroca et al., 1993). (3) DOPAchrome tautomerase activity was measured by HPLC as the disappearance of DOPAchrome substrate and the production of DHICA rather than DHI; data are converted to pmol products by comparison with known standards. The HPLC assay was detailed previously (Palumbo et al., 1987; Tsukamoto et al., 1992). (4) DHI oxidase and DHICA oxidase activities were measured by HPLC as the disappearance of these substrates from reaction mixtures compared to controls for spontaneous auto-oxidation; data are converted to pmol by comparison with known standard (Aroca et al., 1993). (5) Melanin production was measured using incorporation of [^14C]tyrosine into acid-insoluble melanin, also as detailed previously (Hearing and Ekel, 1976; Hearing, 1987); pmol melanin produced are calculated from the radioactive product. […]

Another assay relates to TRP2. Kind of assay: Northern blotting of TRP2 RNA in melan-a cells. In kind it is cell-based, murine. How it is done: These techniques were performed as described previously (Aroca et al., 1993). Briefly, 2.0 μg of mRNA, isolated using a total RNA isolation kit and mRNA purification kit (Promega, Madison, Wis.), were electrophoresed and then blotted to Sure-Blot nylon membranes (Oncor, Gaithersburg, Md.), hybridized with ^32P-labeled probes, dehybridized and rehybridized with other probes again as necessary. TYRS-J, the probe specific for tyrosinase, was kindly provided by Drs. H. Yamamoto and T. Takeuchi, Sendai, Japan and is described in Yamamoto et al Japan J. Genetics Vol 62:271-274, 1987. pMT4, specific for TRP1, was provided by Dr. S. Shibahara, Sendai, Japan and is described in Shibahara, S. et al Nucleic Acid Res. Vol 14:2413-2427, 1986. TRP2a, specific for TRP2 was provided by Dr. I. Jackson, Edinburgh, Scotland and is described in Jackson, I et al. EMBO Vol 11:527-535, 1992. gp100, specific for silver, was provided by Dr. Y. Kawakami, Bethesda, Md. and is described in Kawakami et al PNAS, Vol. 91, 6458-6462, 1994.
Recombinant agouti protein was purified from baculovirus system by Dr. Michael Ollmann in Dr. Gregory Barsh's laboratory by methods known in the art. 2×10^6 cells were seeded per 15 cm diameter dish. The medium was changed everyday, and fresh agouti protein and/or αMSH added everyday usually at 10 nM. To examine transcriptional regulation, total RNA was isolated and Northern blotting performed by methods described in Example 1. The A26 probe to the MSH-R was provided by Dr. R. Cone and is described in Mountjoy et al. Science 257:1248-1251, 1992. At the translational level, metabolic labeling was used in conjunction with immunoprecipitation as described in Example 1. Western blotting and enzyme assay was used to examine function.
The effects of agouti protein on expression of TRP1, TRP2, and the MSH receptor were examined.
Total RNA was extracted from cells using an RNeasy total RNA isolation kit (QIAGEN, Catsworth, Calif.), following the manufacturer's instructions. […]

On to “α-melanocyte stimulating hormone [MSH, reference compound]”, for which, in the assay on tyrosinase, the DOPA oxidase was found to be 197.5 ± 17.4 pmol/μg protein/hr. Moreover, the “increase in TRP2 RNA level” value in the assay with TRP2 (10 nM, 5 days) is given as 50%.

B1: agouti protein: Recombinant murine agouti signal protein purified from a baculovirus expression system (protein)
chain: MDVTRLLLATLVSFLCFFTVHSHLALEETLGDDRSLRSDSSMNSLDFSSVSIVALNKKSKKISRKEAEKRKRSSKKKASMKKVARPPPPSPCVATRDSCKPPAPACCDPCASCQCRFFGSACTCRVLNPNC
As to B1, the DOPA oxidase with tyrosinase was −2.6 ± 3.4 pmol/μg protein/hr. For the same molecule, in the assay on TRP2 (10 nM, 5 days), the “RNA level of TRP2” value was “nearly a fivefold decrease”. Further, the “level of TRP2 RNA” value in the assay on TRP2 (24 hours, different concentrations) was “reduced, but not to the same extent as tyrosinase RNA”.

The values above are taken from patent US6579848B1, “Depigmenting activity of agouti signal protein and peptides thereof” (The United States of America as represented by the …, priority 1995, dated 2003).
